For 1 molecule, amount of antibody that blocks the binding of PD-1 to PD-L1 results are on record in patent publication CN112225809A.

The target of this experiment is hPD1/Fc of human IgG1 (fluorescently labelled) (human) (UniProt Q15116). The experiment in a line: flow cytometry blocking assay: 100 ng hPD-1/hFc-FITC and antibody on SPC-A1-PDL1 cells. Background: In flow cytometry, cells or beads pass a laser one at a time.
Chain of UniProt Q15116 (Q15116 25-167 limits assumed): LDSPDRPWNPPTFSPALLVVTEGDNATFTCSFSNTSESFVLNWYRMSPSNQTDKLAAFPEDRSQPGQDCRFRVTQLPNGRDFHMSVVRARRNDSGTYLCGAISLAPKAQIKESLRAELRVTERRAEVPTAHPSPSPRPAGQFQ

B1: hUM1-30 (antibody, human IgG4 S228P, kappa, V domains shown)
VH: EVQLVESGGGLVQPGGSLRLSCAASGFTFSTYGMSWVRQAPGKGLEWVSTISGGGRYTYYPDSVKGRFTISRDNSKNTLYLQMNSLRAEDTAVYYCARQKGTTWFAHWGQGTLVTVSS
VL: DIQMTQSPSSLSASVGDRVTITCRASESVDDNGISFMNWFQQKPGKAPKLLIYAASNQGSGVPSRFSGSGSGTDFTLTISSLQPEDFATYYCQQSKEVPWTFGQGTKVEIKR
B1 gave an amount of antibody that blocks the binding of PD-1 to PD-L1 of 1.6 µg.
